Here are results for 12 variants from PMC8495455, “Discovery of a transdermally deliverable pentapeptide for activating AdipoR1 to promote hair growth” (EMBO Molecular Medicine, 2021).

The labels stand for the following.
B1: GST-fused P5 (GLYYF) [human] / Flag-fused N-terminal-truncated AdipoR1 (residues 89-375) [human] (parent complex)
chain 1: GLYYF
chain 2: EGRWRVIPYDVLPDWLKDNDYLLHGHRPPMPSFRACFKSIFRIHTETGNIWTHLLGFVLFLFLGILTMLRPNMYFMAPLQEKVVFGMFFLGAVLCLSFSWLFHTVYCHSEKVSRTFSKLDYSGIALLIMGSFVPWLYYSFYCSPQPRLIYLSIVCVLGISAIIVAQWDRFATPKHRQTRAGVFLGLGLSGVVPTMHFTIAEGFVKATTVGQMGWFFLMAVMYITGAGLYAARIPERFFPGKFDIWFQSHQIFHVLVVAAAFVHFYGVSNLQEFRYGLEGGCTDDTLL
B2: Flag-fused N-terminal-truncated AdipoR1 (residues 89-375) [human] / GST-fused P5 (GLYYF) [human] (parent complex)
chain 1: B1 chain 2
chain 2: GLYYF

The variants in the first assay derive from B1. As to the kind of experiment: GST pulldown; n = 3 technical replicates/group; parent: 1; read off a plot.
With chain 1 Y4D, the ratio to parent is ~0.13.
On to chain 1 Y4A, for which the ratio to parent is ~0.12.

In the next assay the parent is B2. The description is as above.
On to chain 1 Y138A, for which the ratio to parent was ~0.65.
chain 1 Y141A: the ratio to parent is ~1.
Same read-out and setting: with chain 1 Y137A the figure was ~0.77.

In the next assay the parent is B2. Described as above. This is another data set of the same source.
chain 1 F197E, chain 1 E201A: the ratio to parent was ~0.45.
chain 1 F197E, chain 1 F273A: the ratio to parent is ~0.72.
With chain 1 F197A, chain 1 R274A, the ratio to parent is ~0.75.

In the next assay the parent is B2. The description is as above. The source holds these as a separate data set.
Take chain 1 F273A: the ratio to parent was ~0.73.
Same read-out and setting: next, chain 1 F197A: ~0.57; chain 1 F197E: ~0.3.
For chain 1 R274A, the ratio to parent was ~0.83.
